Test [1] deals with T1, human IL-21R extracellular domain His-Flag fusion protein (human, UniProt Q9HBE5 20-232).
T1 construct: Biotinylated in the HTRF screen; also called hIL-21R-H/F; human IL-21R-H/F
In words: SPR, Ab captured on anti-human IgG, replicate experiment; Table 7B, human IL-21R-His/FLAG. As to the method:
The kinetics of binding of anti-IL-21R antibodies to human and murine IL-21R-H/F was tested on a BIACORE™ surface plasmon resonance instrument. Anti-human IgG antibodies (Invitrogen Corporation) were immobilized onto a research-grade carboxy-methyl-dextran chip (CM5) using standard amine coupling. The surface was activated with EDC/NHS for 7 min at a flow of 20 μl/min. The first flow cell was used as a reference surface to correct for bulk refractive index, matrix effects, and nonspecific binding. The anti-human-Fc antibody was diluted to 20 μg/ml in 10 mM sodium acetate buffer (pH 5.0), and 2950-3405 resonance units (RU) were captured on each of the four flow cells. Remaining activated groups were blocked with 1.0 M ethanolamine-HCl (pH 8.5).
Anti-IL-21R antibodies were diluted to 0.1-0.2 μg/ml in HBS/EP buffer supplemented with 0.2% bovine serum albumin and loaded onto the BIACORE™ chip. Following a brief washing period, solutions of 0-100 nM human IL-21R-H/F or 10-500 nM murine IL-21R-H/F were injected over the chip at a flow rate of 50 μl/min. The association phase was run for 3 min for human and murine IL-21R kinetics, and the dissociation phase was monitored for 15 min for hIL-21R and for 5 min for mIL-21R, followed by two 10 μl injections and one 30 μl injection of glycine (pH 1.5), to regenerate a fully active capturing surface. […]

The target of test [2] is T2, human IL-2Rβ (human, UniProt P14784 27-239).
T2 sequence (looked up): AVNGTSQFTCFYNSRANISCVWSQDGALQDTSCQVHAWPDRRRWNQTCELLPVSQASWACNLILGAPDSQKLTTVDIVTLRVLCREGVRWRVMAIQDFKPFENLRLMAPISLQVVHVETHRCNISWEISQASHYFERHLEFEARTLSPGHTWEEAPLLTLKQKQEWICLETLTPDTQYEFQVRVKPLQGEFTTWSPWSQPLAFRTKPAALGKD
In words: SPR, Ab captured. In outline: (§1)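 SPR at 25 °C in HBS/EP: antibodies from conditioned media captured (500-700 RU) on amine-coupled anti-human IgG or anti-murine Ig on CM5 chip. 50 nM analyte injected, association 120 s and dissociation 180 s; glycine pH 1.5 regeneration, double-referenced sensorgrams.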

In test [3] the target is T3, human soluble IL-4R (human, UniProt P24394 26-232, limits assumed).
T3 construct: also called human sIL-4R
In words: SPR, Ab captured. Summed up:
as §1

Test [4] addresses T4, human IL-13-His/FLAG (human, UniProt P35225 35-146, limits assumed).
T4 construct: Unrelated His/FLAG-tagged control; also called human IL-13-H/F
In words: SPR, Ab captured. Summed up: as §1

Test [5] has as its target rat IL-21R expressed on cells (rat). In words: cell-based or functional assay.
The target in test [6] is human IL-21R expressed on cells (human, UniProt Q9HBE5 20-538). In words: cell-based or functional assay.
Chain of human IL-21R expressed on cells (Q9HBE5 20-538 limits assumed): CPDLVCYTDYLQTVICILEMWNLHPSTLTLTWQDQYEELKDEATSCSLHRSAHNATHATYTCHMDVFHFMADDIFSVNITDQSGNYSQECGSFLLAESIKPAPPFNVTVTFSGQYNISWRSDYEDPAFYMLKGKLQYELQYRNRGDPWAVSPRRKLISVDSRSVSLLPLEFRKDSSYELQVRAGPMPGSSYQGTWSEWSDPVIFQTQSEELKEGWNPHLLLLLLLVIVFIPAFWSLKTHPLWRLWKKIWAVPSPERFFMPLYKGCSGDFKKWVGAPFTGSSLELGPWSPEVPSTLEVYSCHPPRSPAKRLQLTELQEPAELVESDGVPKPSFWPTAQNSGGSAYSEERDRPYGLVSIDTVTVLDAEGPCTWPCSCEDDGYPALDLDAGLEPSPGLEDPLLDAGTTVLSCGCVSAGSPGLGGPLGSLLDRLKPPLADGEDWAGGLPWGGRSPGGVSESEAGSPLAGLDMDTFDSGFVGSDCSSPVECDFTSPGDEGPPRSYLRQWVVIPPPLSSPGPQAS
Test [7] concerns the target T5, rabbit IL-21R-Fc isoform 1 (rabbit).
T5 construct: extracellular domain
In words: ELISA; competitor 10% conditioned medium containing rabbit IL-21.

For test [8], the target named is T6, rabbit IL-21R-Fc isoform 2 (rabbit).
T6 construct: extracellular domain
Described as above.

T4 sequence (P35225 35-146 limits assumed): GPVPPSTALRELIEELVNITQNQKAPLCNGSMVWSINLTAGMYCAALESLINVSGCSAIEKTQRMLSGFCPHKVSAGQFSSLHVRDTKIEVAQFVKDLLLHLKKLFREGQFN
T1 sequence (Q9HBE5 20-232): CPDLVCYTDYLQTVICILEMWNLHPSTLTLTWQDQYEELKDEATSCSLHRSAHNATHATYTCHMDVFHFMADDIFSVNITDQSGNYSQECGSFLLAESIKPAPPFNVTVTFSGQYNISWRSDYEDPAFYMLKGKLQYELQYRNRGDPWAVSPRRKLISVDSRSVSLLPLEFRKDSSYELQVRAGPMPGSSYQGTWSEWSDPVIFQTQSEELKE

B1: AbQ (antibody, human IgG1, V domains shown)
VH: QVQLQESGPGLVKPSETLSLTCAVSGYSISSGYYWGWIRQPPGKGLEWIGSISHTGNTYYNPPLKSRVTISVDTSKNQFSLKLSSVTAADTAVYYCARFMGFGRPEYWGQGTLVTVSS
VL: SSELTQDPAVSVALGQTVRITCQGDSLRTYYASWYQQKPGQAPVLVIYGKHKRPSGIPDRFSGSSSGNTASLTITGAQAEDEADYYCVARSVVGNPHVLFGGGTQLTVL
notes: CDR3 graft, residue limits derived as for m29; also called VH3/VL2; VH3DM/VL2
For B1, the kon in test [1] came to 439000 M⁻¹ s⁻¹.

B2: parental 18A5 antibody (antibody, V domains shown)
VH: QVQLQESGPGLVKTSETLSLTCAVSGYSISSGYYWGWIRQPPGKGLEWIGSISHTGNTYYNPPLKSRVTISVDTSKNQFSLKLSSVTAADTAVYYCARGGGISRPEYWGKGTLVTVSS
VL: SSELTQDPPVSVALGQTVTLTCQGDSLRTYYASWYQQKSGQAPILLLYGKHKRPSGIPDRFSGSTSGDTASLTITGAQAEDEADYYCNSRDSSGNPHVLFGGGTQLTVL
notes: also called 18A5 IgG
As for B2, the binding result in test [2], in test [3] and in test [4] was “no binding (tested: 50 nM)” each time.

B3: AbS (antibody, V domains shown)
VH: QVQLQESGPGLVKPSETLSLTCAVSGYSISSGYYWGWIRQPPGKGLEWIGSISHTGNTYYNPPLKSRVTISVDTSKNQFSLKLSSVTAADTAVYYCARGGGISRPEYWGQGTLVTVSS
VL: SSELTQDPAVSVALGQTVRITCQGDSLRTYYASWYQQKPGQAPVLVIYGKHKRPSGIPDRFSGSSSGNTASLTITGAQAEDEADYYCMSRSIWGNPHVLFGGGTQLTVL
notes: CDR3 graft, residue limits derived as for m29; also called VHP/VL6; VHPTM/VL6
Consider B3, for which, in test [5], the “IC50, rat T cell proliferation, experiment 1” value turned out to be 36 nM and the “IC50, rat T cell proliferation, experiment 2” value was 27.1 nM. In test [6], the “IC50, IL-21-induced CD19 expression in human whole blood” value was 7 ng/mL; the “IC50, IL-21-induced GZMB expression in human whole blood” value was < 3 ng/mL; the “IC50, IL-21-induced IFNG expression in human whole blood” value was 15 ng/mL; the “IC50, IL-21-induced IL2Rα expression in human whole blood” value came out at 2 ng/mL. In test [6], the “IC50, IL-21-induced IL6 expression in human whole blood” value turned out to be 5 ng/mL and the “IC50, IL-21-induced PRF1 expression in human whole blood” value was determined as 7 ng/mL. Moreover, in test [7], the “fold reduction of binding in the presence of rabbit IL-21” value was ~10 fold. Also, the “fold reduction of binding in the presence of rabbit IL-21” value in test [8] was ~10 fold.

B4: AbU (antibody, human IgG1, V domains shown)
VH: QVQLQESGPGLVKPSETLSLTCAVSGYSISSGYYWGWIRQPPGKGLEWIGSISHTGNTYYNPPLKSRVTISVDTSKNQFSLKLSSVTAADTAVYYCARGGGISRPEYWGQGTLVTVSS
VL: SSELTQDPAVSVALGQTVRITCQGDSLRTYYASWYQQKPGQAPVLVIYGKHKRPSGIPDRFSGSSSGNTASLTITGAQAEDEADYYCTTRSNKGNPHVLFGGGTQLTVL
notes: CDR3 graft, residue limits derived as for m29; also called VHP/VL25; VHPTM/VL25
For B4, in test [5], the “IC50, rat T cell proliferation, experiment 1” value was 173 nM and the “IC50, rat T cell proliferation, experiment 2” value is 105 nM.
